The target of assay [1] is T1, LRP6E3E4_O75581_631-1246 (Homo sapiens (Human), UniProt O75581 631-1246, biotinylated in the BLI/SPR assays (C-terminal biotin acceptor peptide)).
T1 construct: The entry holds residues 631-1246 of UniProt O75581 followed by a biotin acceptor peptide and eight His
T1 sequence: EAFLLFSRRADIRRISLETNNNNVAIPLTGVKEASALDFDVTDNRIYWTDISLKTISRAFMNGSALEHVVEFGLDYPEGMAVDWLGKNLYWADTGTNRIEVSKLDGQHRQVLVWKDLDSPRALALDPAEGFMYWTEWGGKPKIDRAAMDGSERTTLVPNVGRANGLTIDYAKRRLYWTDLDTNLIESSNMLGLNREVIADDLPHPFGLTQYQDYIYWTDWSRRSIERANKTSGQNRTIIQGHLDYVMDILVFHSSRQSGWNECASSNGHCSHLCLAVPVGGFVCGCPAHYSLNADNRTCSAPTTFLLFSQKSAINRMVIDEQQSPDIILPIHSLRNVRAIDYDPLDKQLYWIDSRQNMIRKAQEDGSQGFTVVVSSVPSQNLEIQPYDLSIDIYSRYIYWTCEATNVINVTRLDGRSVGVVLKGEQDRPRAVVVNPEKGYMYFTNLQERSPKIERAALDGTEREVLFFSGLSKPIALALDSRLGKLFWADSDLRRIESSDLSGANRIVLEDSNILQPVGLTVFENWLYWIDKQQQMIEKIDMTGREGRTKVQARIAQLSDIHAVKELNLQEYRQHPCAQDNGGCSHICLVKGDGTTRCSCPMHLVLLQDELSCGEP
The assay can be described thus: Octet BLI. Here is the method:
(§1) Binding kinetics of antibody fragments to LRP5 extracellular domain (LRP5 ECD) and/or LRP6 extracellular domain (LRP6 ECD) protein targets was determined by bio-layer interferometry (BLI) using Octet Red 96 (PALL ForteBio, Fremont, Calif.) instruments at 30° C., 1000 rpm with streptavidin (SA) biosensors. C-terminal biotinylated LRP ECD recombinant protein was diluted to 20 nM in the running buffer (PBS, 0.05% Tween-20, 0.5% BSA, pH 7.2) and captured to the SA biosensor until coupling length reached 0.2 nm. Following capture of the LRP5 or LRP6, the SA biosensor with captured biotinylated-LRP5 or biotinylated LRP6 was dipped into wells containing the relevant antibody fragment at […] (0, 1.37, 4.12, 12.4, 37, 111.1, 333.3, 1000 nM) in running buffer, plus a well with only running buffer as a reference channel. KD was determined by global fitting, 1:1 binding model according to manufacturer recommended settings.
On the technique in general: In BLI a coated tip is dipped into the sample, and binding shifts an interference pattern.

Assay [2] addresses T2, LRP6e1e2 (UniProt O75581 20-630, limits assumed, C-terminally biotinylated).
T2 construct: domain: E1E2; also called LRP6 E1E2 domains
T2 sequence (looked up): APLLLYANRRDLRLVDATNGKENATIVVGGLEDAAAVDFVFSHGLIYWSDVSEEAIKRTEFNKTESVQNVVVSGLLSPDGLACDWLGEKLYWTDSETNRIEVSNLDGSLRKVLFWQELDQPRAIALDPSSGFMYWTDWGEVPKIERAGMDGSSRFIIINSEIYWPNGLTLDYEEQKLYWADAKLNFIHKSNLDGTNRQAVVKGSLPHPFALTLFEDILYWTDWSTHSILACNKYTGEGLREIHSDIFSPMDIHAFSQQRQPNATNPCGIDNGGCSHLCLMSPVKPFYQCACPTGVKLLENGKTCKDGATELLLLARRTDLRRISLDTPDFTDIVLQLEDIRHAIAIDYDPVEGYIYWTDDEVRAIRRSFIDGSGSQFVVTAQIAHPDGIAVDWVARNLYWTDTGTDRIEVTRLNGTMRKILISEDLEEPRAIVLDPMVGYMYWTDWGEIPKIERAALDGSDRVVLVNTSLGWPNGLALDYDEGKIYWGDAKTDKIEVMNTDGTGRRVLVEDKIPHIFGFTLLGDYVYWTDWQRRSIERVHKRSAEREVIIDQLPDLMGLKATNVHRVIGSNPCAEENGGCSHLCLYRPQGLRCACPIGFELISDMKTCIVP
The assay can be described thus: Octet BLI, affinity class. Here is the method: as §1

The target of assay [3] is T2, LRP6e1e2. The assay can be described thus: Octet BLI or BIAcore SPR.
For assay [4], the target named is T2, LRP6e1e2. The assay can be described thus: Octet BLI. The protocol: as §1
In assay [5] the target is T1, LRP6E3E4_O75581_631-1246. As to the kind of experiment: Octet BLI, affinity class. Here is the method:
as §1

The target in assay [6] is T1, LRP6E3E4_O75581_631-1246. As to the kind of experiment: Octet BLI or BIAcore SPR.
In assay [7] the target is T1, LRP6E3E4_O75581_631-1246. The assay can be described thus: Octet BLI or BIAcore SPR; Table 1B (heavy-chain-only clones).
The target of assay [8] is T3, LRP6E3E4_O75581_631-1246 (Homo sapiens (Human), UniProt O75581 631-1246).
T3 construct: also called LRP6E3E4 construct used for structural studies
T3 sequence: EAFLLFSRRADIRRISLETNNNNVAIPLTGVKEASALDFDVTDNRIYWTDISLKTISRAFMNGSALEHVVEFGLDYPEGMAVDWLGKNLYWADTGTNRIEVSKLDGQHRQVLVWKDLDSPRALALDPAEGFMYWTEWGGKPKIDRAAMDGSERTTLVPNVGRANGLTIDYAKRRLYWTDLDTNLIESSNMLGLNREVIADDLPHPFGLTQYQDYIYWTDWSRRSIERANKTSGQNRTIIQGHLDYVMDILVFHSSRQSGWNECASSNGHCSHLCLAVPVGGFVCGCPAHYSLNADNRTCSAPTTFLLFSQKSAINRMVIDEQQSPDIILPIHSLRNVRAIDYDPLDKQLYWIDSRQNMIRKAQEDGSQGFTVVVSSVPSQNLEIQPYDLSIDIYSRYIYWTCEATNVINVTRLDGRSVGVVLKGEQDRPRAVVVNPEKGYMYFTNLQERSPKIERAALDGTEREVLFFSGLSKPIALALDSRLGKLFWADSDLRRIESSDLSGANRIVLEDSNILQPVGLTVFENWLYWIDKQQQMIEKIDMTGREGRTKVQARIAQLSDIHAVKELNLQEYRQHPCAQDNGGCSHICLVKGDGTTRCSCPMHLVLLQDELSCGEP
The assay can be described thus: co-crystal structure (figure legend). Here is the method: Structure of Lrp6E3E4:VHH/Fab complexes were determined by molecular replacement method using Phaser [Phaser crystallographic software. A. J. McCoy, R. W. Grosse-Kunstleve, P. D. Adams, M. D. Winn, L. C. Storoni, and R. J. Read. J Appl Crystallogr 40, 658-674 (2007)] with published structures Lrp6E3E4 [PDB code: 4AOP; Chen S, Bubeck D, MacDonald B T, Liang W X, Mao J H, Malinauskas T, Llorca O, Aricescu A R, Siebold C, He X, Jones E Y. Dev. Cell 21 848-61 (2011)] and a VHH or sdAb [PDB code: 6B20, chain E; Gulati S, Jin H, Masuho I, Orban T, Cai Y, Pardon E, Martemyanov K A, Kiser P D, Stewart P L, Ford C P, Steyaert J, Palczewski K. Nat Commun 91996 (2018)], followed by refinement and validation by MolProbity as implemented in Phenix [PHENIX: a comprehensive Python-based system for macromolecular structure solution. P. D. Adams, P. V. Afonine, G. Bunkoczi, V. B. Chen, I. W. Davis, N. Echols, J. J. Headd, L. W. Hung, G. J. Kapral, R. W. Grosse-Kunstleve, A. J. McCoy, N. W. Moriarty, R. Oeffner, R. J. Read, D. C. Richardson, J. S. Richardson, T. C. […]
Diffraction quality crystals of Lrp6E3E4:VHH36 (concentration=14.0 mg/mL) were obtained by grid-screen optimization in a condition containing 1.6 M ammonium sulfate and 0.1 M Tris pH 8.2. […] Structure of Lrp6E3E4:VHH36 complex was determined at a resolution of 2.70 Å, and refined to Rcryst and Rfree factors of 18.6% and 22.8%, respectively.

Binding result and Kd data for 10 molecules are collected here from US20210079089A1 (SURROZEN OPERATING, published 2021).

B1: 009S-F03 (VHH)
VHH: DVQLVESGGGLVQAGGSLRLSCAASGRTFSSYAMSWFRQAPGKEREFVAVIGRSGGIKYYADSVKGRFTISRDNTINTVYLQMNNLTPEDTAIYYCATRRPFNSYNTEQSYDSWGRGTLVTVSS
For orientation: Kd means a measure of binding affinity in units of concentration. Read a high Kd as lower affinity. Take B1: in the assay with LRP6E3E4_O75581_631-1246 [1], the binding result was “no binding”. For the same molecule, the Kd with LRP6e1e2 [2] and in the assay with LRP6e1e2 [3] was less than 500 nM in each case.

B2: 009S-H04 (VHH)
VHH: EVQLVESGGGLVQAGGSLRLACAGSGRIFAIYDMAWYRQAPGNQRELVATIRPVVSETTYADAVKGRFTISRSNAMKTVYLQMNSLKSEDTAIYYCNAKRPWGTRDEYWGQGTLVTVSS
For the molecule B2, the binding result with LRP6e1e2 [4] was “no binding”. Further, the Kd in the assay with LRP6E3E4_O75581_631-1246 [5] and in the assay with LRP6E3E4_O75581_631-1246 [6] was less than 500 nM each time.

B3: 009S-D04 (VHH)
VHH: QVKLEESGGGLVQPGGSLRLSCETSATIVSIYRINWYRQAPGKQREWVAGITSSGRTIYADSVKGRFTISRDNAKNTVYLQMNNLKPEDTAVYYCNAASTVTAWPYYGPDYWGKGTLVTVSS
For the molecule B3, the Kd with LRP6e1e2 [2] was less than 500 nM; with LRP6E3E4_O75581_631-1246 [5], less than 500 nM; with LRP6E3E4_O75581_631-1246 [7] it was greater than 500 nM.

B4: 009S-G02 (VHH)
VHH: AVQLVESGGGLVQAGGSLRLSCGVSGSIFSIYAMGWYRQAPGKERELVAVITSGGKTVYADSVKGRFTITEDAAKNTVYLQMNSLKAEDTAVYYCYADSRSSWYDEYLEHWGRGTLVTVSS
For the molecule B4, the binding result in the assay with LRP6E3E4_O75581_631-1246 [1] is “no binding”. Besides, the equilibrium dissociation constant (Kd) with LRP6e1e2 [2] and with LRP6e1e2 [3] was less than 500 nM throughout.

B5: VHH36 (013S-D05) (VHH)
VHH: QVKLEESGGGLVQAGGSLRLSCAASGRIFSIYDMGWFRQAPGKEREFVSGIRWSGGTSYADSVKGRFTISKDNAKNTIYLQMNNLKAEDTAVYYCGSRGYWGQGTLVTVSS
modifications: Gln1 modified as pyroglutamate
notes: construct of the crystal structure
As to B5, in the assay with LRP6E3E4_O75581_631-1246 [8], the binding result is given as “binds”.

B6: 013S-D05 (HC SEQ ID NO 18) (VHH)
VHH: QVKLEESGGGLVQAGGSLRLSCAASGRIFSIYDMGWFRQAPGKEREFVSGIRWSGGTSYADSVKGRFTISKDNAKNTIYLQMNNLKAEDTAVYYCGSRGYWGQGTLVTVSS
Consider B6, for which the binding result with LRP6e1e2 [4] is reported as “no binding”. Also, the Kd with LRP6E3E4_O75581_631-1246 [5] and with LRP6E3E4_O75581_631-1246 [6] was less than 500 nM in each case.

B7: 013S-C05 (HC SEQ ID NO 17) (VHH)
VHH: EVQLVESGGGLVQPGGSLRLSCAVSRNIFPIDDMSWYRQAPGKQRELVATVTSGGRINYADSVKGRFTISRDGARRTIDLQMNNLKPEDTAVYYCNVDRTLYGKYKEYWGQGTLVTVSS
As for B7, in the assay with LRP6e1e2 [4], the binding result is “no binding”. Further, the Kd in the assay with LRP6E3E4_O75581_631-1246 [5] and in the assay with LRP6E3E4_O75581_631-1246 [6] was less than 500 nM each time.

B8: 009S-A04 (VHH)
VHH: AVQLVESGGGLVQAGGSLRLSCAASGRTLSAYDMGWFRQAPGKERELVGGIRWSGGTTLYPDSVKGRFTISRDNAKNTVYLQMNSLKPEDSAVYYCYARTVIGGFGAFRAHWGQGTQVTVSS
On to B8, for which, in the assay with LRP6E3E4_O75581_631-1246 [1], the binding result is reported as “no binding”. Moreover, the Kd in the assay with LRP6e1e2 [2] and with LRP6e1e2 [3] was less than 500 nM throughout.

B9: 013S-H04 (HC SEQ ID NO 16) (VHH)
VHH: AVQLVDSGGGLVQAGGSLRLSCAVSGRTFSMYDMGWFRQAPGKEREFVASIRWSSGNTWYADSMKGRFTISRDNAKNTVYLQMNSLKPEDTAVYYCYANIYYTRRAPEEYWGQGTLVTVSS
As for B9, the binding result with LRP6e1e2 [4] is “no binding”. The dissociation constant (Kd) with LRP6E3E4_O75581_631-1246 [5] and with LRP6E3E4_O75581_631-1246 [6] was less than 500 nM in each case.

B10: 009S-D03 (VHH)
VHH: DVQLVESGGGLVQPGGSLRLSCAAPGSIFSDGAMGWYRQAPGKQRELVAVISGGRTGYADFVKGRFTISRDNGKNTVNLQMNRLEPEDTAVYFCNTYPFPIYKKGYPFWGQGTQVTVSS
B10: in the assay with LRP6E3E4_O75581_631-1246 [1], the binding result was “no binding”. Further, the Kd in the assay with LRP6e1e2 [2] and in the assay with LRP6e1e2 [3] was less than 500 nM each time.
